Experimental data taken from US20140323392A1.

Tests used:
[1] = biological target: HIV-1 HXB2 envelope glycoprotein gp41 (N-trimer of the prehairpin intermediate) (HIV-1 strain HXB2) (UniProt P04578); assay: cell-based or functional assay
[2] = biological target: HIV-1 JRFL envelope glycoprotein gp41 (N-trimer of the prehairpin intermediate) (HIV-1 strain JRFL); assay: cell-based or functional assay

## C34-PEG11-Chol (from UniProt P04578 628-661) (peptide)
[1]
  IC50, HXB2 pseudovirion entry: 21 pM
[2]
  IC50, JRFL pseudovirion entry: 24 pM

## C34-PEG80-Chol (from UniProt P04578 628-661) (peptide)
[1]
  IC50, HXB2 pseudovirion entry: 22 pM
[2]
  IC50, JRFL pseudovirion entry: 100 pM

## C34-PEG2-Chol (from UniProt P04578 628-661) (peptide)
[1]
  IC50, HXB2 pseudovirion entry: 44 pM
[2]
  IC50, JRFL pseudovirion entry: 50 pM

## C34 (from UniProt P04578 628-661) (peptide)
[1]
  IC50, HXB2 pseudovirion entry: 1400 pM
[2]
  IC50, JRFL pseudovirion entry: 13400 pM
